Measured values taken from the RNAGym collection of RNA variant scans (doi:10.1073/pnas.2313332121).

B1: TPR t1 (parent)
chain: GACCAAUCUGCCCUCAGAGCUCGAGAACAUCUUCGGAUGCAGAGGAGGCAGGCUUCGGUGGCGCGAUAGCGCCAACGUCCUCAACCUCCAAUGCAUCCCACCACAUGAUGAUGCCUGAAGAGCCUUGGUUUUUUG

Variants of: B1
Experiment: polymerase ribozyme fitness, log enrichment relative to wild type (log ratio); higher = more active; in vitro selection for triplet polymerase activity
Summary of the method: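 Mutant libraries for each subunit of a heterodimeric triplet polymerase ribozyme were made by PCR and then transcribed. Each library underwent one round of in vitro selection in triplicate: annealing with a biotinylated primer, the partner subunit and triplets, frozen incubation at −7 °C, gel excision of extended constructs, streptavidin-bead capture and RT-PCR. Input and output libraries were Illumina-sequenced, and only genotypes with ≥10 input reads and ≥1 read per output were kept. Fitness is the logarithm, base 2, of genotype enrichment over wild-type enrichment, computed from inverse-variance-weighted replicate averages.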

Variant	polymerase ribozyme fitness (log ratio)
GACCAAUCUGCCCUCAGAGCUCGAGAACAUCUUCGGAUGCAGAGGAGGCAGGCUUCGGUGGCGCGAUAGCGCCAACGUCCUCAACCUCGAAUGCAUCCCACCAUAUGAUGAUGCCUGAAGUGCCUUGGUUUUUUG	1.58
GACCAAUCUGCCCUCAGAGCUCGAGAACAUCUUCGGAUGCAGAGGAGGCAGGCUUCGGUGGCGCGAUAGCGCCAACGUCCUCAACCUCUAAUGCAUCCCACCACAUGAUUAUGCCUGAAGGGCCUUGGUUUUUUG	-1.62
GACCAAUCUGCCCUCAGAGCUCGAGAACAUCUUCGGAUGCAGAGGAGGCAGGCUUCGGUGGCGCGAUAGCGCCAACGUCCUCAACCUCUAAUGCAUCCCACCACAUGAUGAUGCCUGAAGGGCCUUGGUUUUUUG	-0.907
GACCAAUCUGCCCUCAGAGCUCGAGAACAUCUUCGGAUGCAGAGGAGGCAGGCUUCGGUGGCGCGAUAGCGCCAACGUCCUCAACCUCUAAUGCAUCCCACCACAUGAUGAUGCCUGAAGAGCCUCGGUUUUUUG	-1.11
GACCAAUCUGCCCUCAGAGCUCGAGAACAUCUUCGGAUGCAGAGGAGGCAGGCUUCGGUGGCGCGAUAGCGCCAACGUCCUCAACCUCCGAGGCAUCCCACCACAUGAUGAUGCCUGAAGAGACUUGGUUUUUUG	-1.06
GACCAAUCUGCCCUCAGAGCUCGAGAACAUCUUCGGAUGCAGAGGAGGCAGGCUUCGGUGGCGCGAUAGCGCCAACGUCCUCAACCUCUAAUGCAUGCCACCACAUGAUGAUGCCUGAAGAGCCUUGGUUUUUUG	-5.4
GACCAAUCUGCCCUCAGAGCUCGAGAACAUCUUCGGAUGCAGAGGAGGCAGGCUUCGGUGGCGCGAUAGCGCCAACGUCCUCAACCUCUAAUGCAUUCCACCACAUGAUGAUGCCUGAAGAGCCUUGGUUUUUUG	-0.579
GACCAAUCUGCCCUCAGAGCUCGAGAACAUCUUCGGAUGCAGAGGAGGCAGGCUUCGGUGGCGCGAUAGCGCCAACGUCCUCAACCUCAAAUGCAUCCCACCACAUGAUUAUGCCUGAAGAGCCUUGGUUUUUUG	-3.66
GACCAAUCUGCCCUCAGAGCUCGAGAACAUCUUCGGAUGCAGAGGAGGCAGGCUUCGGUGGCGCGAUAGCGCCAACGUCCUCAACCUCAAAUGCAUCCCACCACAUGAUAAUGCCUGAAGAGCCUUGGUUUUUUG	-3.58
GACCAAUCUGCCCUCAGAGCUCGAGAACAUCUUCGGAUGCAGAGGAGGCAGGCUUCGGUGGCGCGAUAGCGCCAACGUCCUCAACCUCUAAGGCAUCCCACCACAUGAUGAUGCCUGAAGAGCCUUGGUUUUUUG	-1.82
GACCAAUCUGCCCUCAGAGCUCGAGAACAUCUUCGGAUGCAGAGGAGGCAGGCUUCGGUGGCGCGAUAGCGCCAACGUCCUCAACCUCGAAUGCAUCCCACCACAUGAUGAUGCCUGAAGAGCCUUAGUUUUUUG	-1.9
GACCAAUCUGCCCUCAGAGCUCGAGAACAUCUUCGGAUGCAGAGGAGGCAGGCUUCGGUGGCGCGAUAGCGCCAACGUCCUCAACCUCAAAUGCAUCCCUCCACAUGAUGAUGCGUGAAGAGCCUUGGUUUUUUG	-5.22
GACCAAUCUGCCCUCAGAGCUCGAGAACAUCUUCGGAUGCAGAGGAGGCAGGCUUCGGUGGCGCGAUAGCGCCAACGUCCUCAACCUCCCAUGCAUCCCACCAUAUGAUGAUGCCUGAAGAGCCUUGGUUUUUUG	-0.65
GACCAAUCUGCCCUCAGAGCUCGAGAACAUCUUCGGAUGCAGAGGAGGCAGGCUUCGGUGGCGCGAUAGCGCCAACGUCCUCAACCUCCCAUGCAUCCCACCACAUGAUGAUGUCUGAAGAGCCUUGUUUUUUUG	-4.34
GACCAAUCUGCCCUCAGAGCUCGAGAACAUCUUCGGAUGCAGAGGAGGCAGGCUUCGGUGGCGCGAUAGCGCCAACGUCCUCAACCUCGAAUGCAUCCCACCACAAGAUGAUGCCUGAACACCCUUGGUUUUUUG	-1.85
GACCAAUCUGCCCUCAGAGCUCGAGAACAUCUUCGGAUGCAGAGGAGGCAGGCUUCGGUGGCGCGAUAGCGCCAACGUCCUCAACCUCCGAUGCGUCCCACCACAUGAUGAUGCCUGAAGAGCCUUGGUUUUGUG	-0.0907
GACCAAUCUGCCCUCAGAGCUCGAGAACAUCUUCGGAUGCAGAGGAGGCAGGCUUCGGUGGCGCGAUAGCGCCAACGUCCUCAACCUUCAAUGCAUCCCACCACAUGAUGAUGCCUGAAGAACCUUGGUUUUUUG	-1.42
GACCAAUCUGCCCUCAGAGCUCGAGAACAUCUUCGGAUGCAGAGGAGGCAGGCUUCGGUGGCGCGAUAGCGCCAACGUCCUCAACCUCAGAUGCAUCCCACCACAUGAUGAUGCCUGAAGAGCCUUGGUUUUUUG	-1.53
GACCAAUCUGCCCUCAGAGCUCGAGAACAUCUUCGGAUGCAGAGGAGGCAGGCUUCGGUGGCGCGAUAGCGCCAACGUCCUCAACCUCUAAUGCAUCCCACCACGUGAUGAUGCCUGAAGAGCCUUGGUUUUUUG	-2.76
GACCAAUCUGCCCUCAGAGCUCGAGAACAUCUUCGGAUGCAGAGGAGGCAGGCUUCGGUGGCGCGAUAGCGCCAACGUCCUCAACCUUCAAUGCAUCCCACCACAUGAUGAUGCCUGAAAAGCCUUGGUUUUUUG	-0.0108
GACCAAUCUGCCCUCAGAGCUCGAGAACAUCUUCGGAUGCAGAGGAGGCAGGCUUCGGUGGCGCGAUAGCGCCAACGUCCUCAACCUCUAAUGCAUCCCACCACAUGAUGAUGCCUGAAGAGCCUUGGUUUUGUG	-0.403

Variant	polymerase ribozyme fitness (log ratio)
GACCAAUCUGCCCUCAGAGCUCGAGAACAUCUUCGGAUGCAGAGGAGGCAGGCUUCGGUGGCGCGAUAGCGCCAACGUCCUCAACCUCUAACGCAUCCCACCACAUGAUGAGGCCUGAAGAGCCUUUGUAUUUUG	-3.09
GACCAAUCUGCCCUCAGAGCUCGAGAACAUCUUCGGAUGCAGAGGAGGCAGGCUUCGGUGGCGCGAUAGCGCCAACGUCCUCAACCUCCGAUGCAUCCCACCAUAUGAUGAUGCCUGAAGAGCCUUGGUUUUUUG	-0.0421
GACCAAUCUGCCCUCAGAGCUCGAGAACAUCUUCGGAUGCAGAGGAGGCAGGCUUCGGUGGCGCGAUAGCGCCAACGUCCUCAACCUCAAAUGCAUCCCACCACAUGAUGAUCCCUAAAGAGCCUUGGUUUUUUG	-5.73
GACCAAUCUGCCCUCAGAGCUCGAGAACAUCUUCGGAUGCAGAGGAGGCAGGCUUCGGUGGCGCGAUAGCGCCAACGUCCUCAACCUCCCAUGCAUCCCACCACAAGAUGAUGCCUGAAGAGCCUUGGUUUUUUG	-1.42
GACCAAUCUGCCCUCAGAGCUCGAGAACAUCUUCGGAUGCAGAGGAGGCAGGCUUCGGUGGCGCGAUAGCGCCAACGUCCUCAACCUCCGAUGCAUCCCACCACAUGAUGAUUCCUGCAGAGCCUUGGUUUUUUG	-4.53
GACCAAUCUGCCCUCAGAGCUCGAGAACAUCUUCGGAUGCAGAGGAGGCAGGCUUCGGUGGCGCGAUAGCGCCAACGUCCUCAACCUCCCAUGCAUCCCACCACAUGAUGAUGCCUUAAGAGCCUUGGUUUUUUG	-3.98
GACCAAUCUGCCCUCAGAGCUCGAGAACAUCUUCGGAUGCAGAGGAGGCAGGCUUCGGUGGCGCGAUAGCGCCAACGUCCUCAACCUCGAAUGCAUCCCACCACAAGAUGAUGCCUGAAGAGCCUUGGUUUUUUG	-2.51
GACCAAUCUGCCCUCAGAGCUCGAGAACAUCUUCGGAUGCAGAGGAGGCAGGCUUCGGUGGCGCGAUAGCGCCAACGUCCUCAACCUCAAAUGCAUCCCACCACAUGAUGAUGCCUGAAGAGCCUUGGUUUCUUG	-1.96
GACCAAUCUGCCCUCAGAGCUCGAGAACAUCUUCGGAUGCAGAGGAGGCAGGCUUCGGUGGCGCGAUAGCGCCAACGUCCUCAACCUCAAAUGCAUCCCACCACAUGAUGAAGCCUGAAGAGCCUUGGUUUUUUG	-1.53
GACCAAUCUGCCCUCAGAGCUCGAGAACAUCUUCGGAUGCAGAGGAGGCAGGCUUCGGUGGCGCGAUAGCGCCAACGUCCUCAACCUUCAAUGCAUCCCACCACAUGAUGAAGCCUGAAGAGCCUUGGUUUUUUG	0.961
GACCAAUCUGCCCUCAGAGCUCGAGAACAUCUUCGGAUGCAGAGGAGGCAGGCUUCGGUGGCGCGAUAGCGCCAACGUCCUCAACCUCCCAUGCAUCCCAACACAUGAUGAUGCCUGAAGAGCCUUGGUUUUUUG	-2.32
GACCAAUCUGCCCUCAGAGCUCGAGAACAUCUUCGGAUGCAGAGGAGGCAGGCUUCGGUGGCGCGAUAGCGCCAACGUCCUCAACCUCCCAUGCAUCCCACCACAUCAUCAUGCCUGAAGAGCCUUGGUUUUUUG	-6.73
GACCAAUCUGCCCUCAGAGCUCGAGAACAUCUUCGGAUGCAGAGGAGGCAGGCUUCGGUGGCGCGAUAGCGCCAACGUCCUCAACCUCAAAUGCAUUCCACCACAUGAUGAUGCCUGAAGAGCCUUGGUUUUUUG	-2.16
GACCAAUCUGCCCUCAGAGCUCGAGAACAUCUUCGGAUGCAGAGGAGGCAGGCUUCGGUGGCGCGAUAGCGCCAACGUCCUCAACCUCUAAUGCAUCCCACCACAUGAUGAUGCCUGAAGAGUCUUGGUUUUUUG	0.813
GACCAAUCUGCCCUCAGAGCUCGAGAACAUCUUCGGAUGCAGAGGAGGCAGGCUUCGGUGGCGCGAUAGCGCCAACGUCCUCAACCUCCCAUGCAUCCCACCACAUGAUGAGGCCUGAAGAGCCUUGGUUUUUUG	-0.757
GACCAAUCUGCCCUCAGAGCUCGAGAACAUCUUCGGAUGCAGAGGAGGCAGGCUUCGGUGGCGCGAUAGCGCCAACGUCCUCAACCUCCCAUGCAUCCCACCACAUGAUGAAGCCUGAAGAGCCUUGGUUUUUUG	-1.21
GACCAAUCUGCCCUCAGAGCUCGAGAACAUCUUCGGAUGCAGAGGAGGCAGGCUUCGGUGGCGCGAUAGCGCCAACGUCCUCAACCUCUAAUGCAUCCCACCACAUGAUGAUGCCUGAAGAGCCUUGCUUUUUUG	-3.21
GACCAAUCUGCCCUCAGAGCUCGAGAACAUCUUCGGAUGCAGAGGAGGCAGGCUUCGGUGGCGCGAUAGCGCCAACGUCCUCAACCUUCAAUGCAUCCCACCACAAGAUGAUGGCUGAAGAGCCUUGGUUUUUUG	-5.05
GACCAAUCUGCCCUCAGAGCUCGAGAACAUCUUCGGAUGCAGAGGAGGCAGGCUUCGGUGGCGCGAUAGCGCCAACGUCCUCAACCUCUAAUGCAUCCCACCACAUGAUGAUUCCUGAAGAGCCUUGGUUUUUUG	-3.66
GACCAAUCUGCCCUCAGAGCUCGAGAACAUCUUCGGAUGCAGAGGAGGCAGGCUUCGGUGGCGCGAUAGCGCCAACGUCCUCAACCUCAAAUGCAUCCCACCACAUGAUGAUGCCUGAACAGCCUUGGUUUUUUG	-0.369
GACCAAUCUGCCCUCAGAGCUCGAGAACAUCUUCGGAUGCAGAGGAGGCAGGCUUCGGUGGCGCGAUAGCGCCAACGUCCUCAACCUCAAAUGCAUCCCACCACAUGAUGAUGCCUGAUGAGCCUUGGUUUUUUG	-1.88
